Assay results from article PMC4643982.

Target: T1, EutR::MBP (Salmonella enterica serovar Typhimurium SL1344) (UniProt Q9ZFU7)
T1 sequence: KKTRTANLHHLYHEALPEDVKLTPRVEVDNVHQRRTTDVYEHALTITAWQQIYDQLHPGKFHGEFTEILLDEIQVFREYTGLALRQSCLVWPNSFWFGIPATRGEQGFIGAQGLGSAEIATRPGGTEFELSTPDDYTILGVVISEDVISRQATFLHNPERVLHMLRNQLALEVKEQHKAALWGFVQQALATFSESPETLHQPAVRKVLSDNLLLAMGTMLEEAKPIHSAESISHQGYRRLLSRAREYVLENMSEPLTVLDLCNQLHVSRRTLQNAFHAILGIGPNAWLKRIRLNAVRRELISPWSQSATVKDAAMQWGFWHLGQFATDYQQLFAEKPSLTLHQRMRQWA
Experiment: competition
Details: 60 mM HEPES pH 7.5, 300 mM KCl, 25 mM MgCl2, 5 mM EDTA, 3 mM DTT, 500 ug/ml BSA, 50 ng poly-dIdC, 1 mM ethanolamine, 150 nM vitamin B12; 25 min at 25 C; 6% …

With “CCGGAATTGCCAGCTGGGGCGCCCTCTGGTAAGGTTGGGAAGCCCTGCAAAGTAAACTGGATGGCTTTCTTGCCGCCAAGGATCTGATGGCGCAGGGGATCAAGATCTGATCAAGAGACAGGATGAGGATCGTTTCGCATGATTGAACAAGA (double strand) [kan promoter probe]” the binding was “no binding”.
